The nature of the series: yeast display, Sf9 membrane polyspecificity reagent, FACS + sequencing; frameworks hold sequencing errors. A digest of the protocol: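 Synthetic nanobody libraries on Saccharomyces cerevisiae BJ5465 were galactose-induced for 36–48 hours, stained 1 hour at 4 °C with 10% biotinylated, detergent-solubilized Sf9 membrane reagent and enriched on streptavidin microbeads. FACS then separated cells into low and high (top ~1%) gates by anti-HA (expression) and streptavidin (reagent binding) fluorescence. Genes were colony-PCR amplified, MiSeq 2 × 250 sequenced and CDR-length filtered. A clone's polyreactivity label is that of its gate of origin.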
In the case of “QVQLVESGGGLVQAGGSLRLSCAASGFIFGYNVMGWYRQAPGKERELVAAISSRGSSTYYADSVKGRFTISRDDVKNTVYLQMNSLKPEDTAVYYCAAYSSYNSWVSRRYGHDYWGQGTQVTVSS”, the “polyreactivity (PSR sort gate)” value was “high polyreactivity”.

For the sequence “QVQLVESGGGLVQAGGSLRLSCAASGFIFGYYAMGWYRQAPGKERELVAAINKNGGSTYYADSVKGRFTISRDNAKNTVYLQMNSLKPEDTAVYYCAARARGYAWTYDYWGQGTQVTVSS”, the “polyreactivity (PSR sort gate)” value is “high polyreactivity”.

“QVQLVESGGGLVQAGGSLRLSCAASGFIFGYYAMGWYRQAPGKERELVAAISRGGITYYADSVKGRFTISRDNAKNTVYLQMNSLKPEDTAVYYCAAPNRYSVPMYYWGQGTQVTVSS”: the “polyreactivity (PSR sort gate)” value is reported as “low polyreactivity”.

Regarding “QVQLVESGGGLVQAGGSLRLSCAASGFIFGYYAMGWYRQAPGKERELVAAITRSGGSTRYADSVKGRFTISRDNANNNVYLQMNSLKPEDSAVYYCATRDGTHGYWGQGTQVTASS”, the “polyreactivity (PSR sort gate)” value is given as “high polyreactivity”.

For “QVQLVESGGGLVQAGGSLRLSCAASGFIFGYYAMGWYRQAPGKERELVAAITRSGGSTRYADSVKGRFTLSRDNAKNTVYLQMNSLKPEDTAVYYCTAYAPRQLYGYDYWGQGTQVTVSS”, the “polyreactivity (PSR sort gate)” value is reported as “high polyreactivity”.

As for “QVQLVESGGGLVQAGGSLRLSCAASGFIFGYYAMGWYRQAPGKERELVAPIKYNDDSTYYADSVKARFTISRDNAKNTVYLQMNSLKPEDTAVYYCAASRFWPGNSYYYRYYYWGQGTQVTVSS”, the “polyreactivity (PSR sort gate)” value is recorded as “low polyreactivity”.

With “QVQLVESGGGLVQAGGSLRLSCAASGFIFHDNAMGWYRQAPGKERELVAAISRSGGRTYYADSVKGRFTISRDNAKNTVYLQMNSLKPEDTAVYYCAAVPPPGGLDYWGQGTQVTVSS”, the “polyreactivity (PSR sort gate)” value is on record as “high polyreactivity”.

Regarding “QVQLVESGGGLVQAGGSLRLSCAASGFIFHGYTMGWYRQAPGKEMDMVARISFTGGSTYYADSVKGRFTISRDNAKNTVYLQMNSLKPEDTAVYYCAATYSSYWARYYYWGQGTQVTVSS”, the “polyreactivity (PSR sort gate)” value is given as “high polyreactivity”.

On to “QVQLVESGGGLVQAGGSLRLSCAASGFIFHHYAMGWYRPAPGKERELVAAISKSGGSTYYADSVKGRFTISRDNAKNTVYLQMNSLKPEDTAVYYCAAYKRSGLKYGHWGQGTQVTVSS”, for which the “polyreactivity (PSR sort gate)” value is reported as “high polyreactivity”.

Take “QVQLVESGGGLVQAGGSLRLSCAASGFIFHKYFMGWYTQAPGKERELVAAISRSGASTYYADSVKGRFTISRDNAKNTVYLQMNSLKPEDTAVYYCAKDYQTYSGSSDFDYWGQGTQVTVSS”: the “polyreactivity (PSR sort gate)” value is recorded as “high polyreactivity”.

Consider “QVQLVESGGGLVQAGGSLRLSCAASGFIFHNYAMGWYRQAPGKESELVAVITLRGGSTYYADSVKGRCTISRDNAKNTVYLQMNSLKPEDTAVYYCATGNSKGRRTVRYGYWGQGTQVTVSS”, for which the “polyreactivity (PSR sort gate)” value is listed as “high polyreactivity”.

“QVQLVESGGGLVQAGGSLRLSCAASGFIFHQNAMGWYRQAPGKERELVAAITRSGTSTYYADSVKGRFTISRDNAKNTVYLQMNSLKPEDTAVYYCAACLPYGYGYDYWGQGTEVTVSS”: the “polyreactivity (PSR sort gate)” value is given as “low polyreactivity”.

For the sequence “QVQLVESGGGLVQAGGSLRLSCAASGFIFHQNAMGWYRQAPGKERELVAAITRSGTSTYYADSVKGRFTISRDYAKISVYLQMNSLKPVDTAVFYCANDPVRVGRFGYEYWGKGTQVTVSS”, the “polyreactivity (PSR sort gate)” value is “low polyreactivity”.

With “QVQLVESGGGLVQAGGSLRLSCAASGFIFHYNAMGWYRQAPGKERELVAAITSGDSTDYADSVKGRFTISRDNAKNTVYLQMNSLKPEDTAVYYCAAYHREGRRDDYWGQGTQVTVSS”, the “polyreactivity (PSR sort gate)” value is “low polyreactivity”.

As to “QVQLVESGGGLVQAGGSLRLSCAASGFIFIANAMGWYRQAPGKERELVAAISDGGSTYYADSVKGRFTISRDNAKNTVYLQMNSLKPEDTGVYYCAKDVTWAGHYDYWGQGTQVTVSS”, the “polyreactivity (PSR sort gate)” value was “low polyreactivity”.

As for “QVQLVESGGGLVQAGGSLRLSCAASGFIFIGYAMGWYRHAPGKERELVAAISWSGGSTYYADSVKGRFTISRDNAKNTVYLQMNSLKPEDTAVYYCNAVLYRFAYNYWGQGTQVTVSS”, the “polyreactivity (PSR sort gate)” value is given as “low polyreactivity”.

Take “QVQLVESGGGLVQAGGSLRLSCAASGFIFIKYAMGWYRQAPGKERELVAAISSSGGSTYYADSVKGRFTISRDNAKNTVYLQMNSLKPEDTAVYYCAARGTWSRYGYWGQGTQVTVSS”: the “polyreactivity (PSR sort gate)” value was “high polyreactivity”.

For the sequence “QVQLVESGGGLVQAGGSLRLSCAASGFIFIRYAMGWYRQAPGKERELVAAISASGVRTYYADSVKGRFTISRDNAKNTVYLQMNSLKPEDTAVYYCAVCSAWVYGIGRYYWGQGTQVTVSS”, the “polyreactivity (PSR sort gate)” value is listed as “high polyreactivity”.

With “QVQLVESGGGLVQAGGSLRLSCAASGFIFIRYAMGWYRQAPGKERELVAAISPSGGSTYYADSVKGRFTISRDNAKNTVYLQMNSLKPEDTAVYYCAREWRTYYYFWDHYYIYDYWGQGTQVTVSS”, the “polyreactivity (PSR sort gate)” value is “high polyreactivity”.

Turning to “QVQLVESGGGLVQAGGSLRLSCAASGFIFISYMGCDRQAPGKERELVAAISWSGTRTYYADSVKGRFTISRDNAKNTVYLQMNSLKPEDTAVYYCAARKYYDRYFYWGQGTQVTVSS”, the “polyreactivity (PSR sort gate)” value is recorded as “low polyreactivity”.

Turning to “QVQLVESGGGLVQAGGSLRLSCAASGFIFIYNAMGWYRQAPGKEREMVAAITGSDGGTFYADSVKGRFTISRDNAKNTVYLQLNSLKPEDTAVYYCNADNGSRQSRDGYESWGQGTQVTVSS”, the “polyreactivity (PSR sort gate)” value was “low polyreactivity”.

“QVQLVESGGGLVQAGGSLRLSCAASGFIFKGNAMGWYRQAPGKERELVAAISYSGGSTYYADSVKGRFTISRDNAKNTVYLQMNSLKPEDTAVYYCAALRWYHYGYWGQGTQVNVSS”: the “polyreactivity (PSR sort gate)” value was “high polyreactivity”.

On to “QVQLVESGGGLVQAGGSLRLSCAASGFIFKGYAMGWYRQAPGKERELVAAISQRGSSTYYADSVKGRFTISRDNAKNTVYLQMNSLKPEDTAVYYCNALRHSKLDYYSWGQGTQVTVSS”, for which the “polyreactivity (PSR sort gate)” value is “high polyreactivity”.

On to “QVQLVESGGGLVQAGGSLRLSCAASGFIFKIYTMGWYRQAPGKERELVAAITRRGGRTFYADSVKGRFTISRDNAKNTVYLQMNSLKPEDTAVYYCNAGTKYGTYIATGALKHDYWGQGTQVTVSS”, for which the “polyreactivity (PSR sort gate)” value is “low polyreactivity”.

On to “QVQLVESGGGLVQAGGSLRLSCAASGFIFKRYAMGWYRQAPGKEREFVAAISWGGGNTYYADSVKGRFTISRDNAKNTVYLQMNSLKPEDTAVYYCAKVTSALKYGYWGQGTQVTVSS”, for which the “polyreactivity (PSR sort gate)” value is on record as “high polyreactivity”.

With “QVQLVESGGGLVQAGGSLRLSCAASGFIFKRYAMGWYRQAPGKERELVAAITLSGGDTYYADSVKGRFTISRDNAKNTVYLQMNSLKPEDTAVYYCAARYMSTRTLYYYWGQGTQVTVSS”, the “polyreactivity (PSR sort gate)” value is “high polyreactivity”.

With “QVQLVESGGGLVQAGGSLRLSCAASGFIFKRYSMGWYRQAPGKERELVAAITSGGSTHYADSVKGRFTISRDNAKNTVYLQMNSLKPEDTAVYYCATRRYKWGVRYDYWGQGTQVTVSS”, the “polyreactivity (PSR sort gate)” value was “high polyreactivity”.

As to “QVQLVESGGGLVQAGGSLRLSCAASGFIFKSYAMGWYRQAPGKERELVAGITRRGGSTYYADSVKGRFTISRDNSKNSVYFQMISLKPEDTAVYYCNAGRKTADYDYWGQGTQVTVSS”, the “polyreactivity (PSR sort gate)” value is “high polyreactivity”.

In the case of “QVQLVESGGGLVQAGGSLRLSCAASGFIFKSYTMGWYRQAPGKERELVADISKSGGSTYYADSVKGRFTISRDNAKNTVYLQMNSLKPEDTAVYYCNADIWLYVNNYSEYDYWGQGTQVTVSS”, the “polyreactivity (PSR sort gate)” value is listed as “high polyreactivity”.

On to “QVQLVESGGGLVQAGGSLRLSCAASGFIFLAYTMGWYRQAPGKERELVAAISASGGRTYYADSVKGRFTISRDNAKNTVYLQMNSLKPEDTAVYYCAAAGGRFIRYGYWGQGTQVTVSS”, for which the “polyreactivity (PSR sort gate)” value is on record as “high polyreactivity”.

For the sequence “QVQLVESGGGLVQAGGSLRLSCAASGFIFLDYAMGWYRQAPGKERELVAAISSRGARTYYADSVKGRFTISRDNAKNTVYVQMNSLKPEDTAVYYCAARGPLDRYGYWGQGTQVTVSS”, the “polyreactivity (PSR sort gate)” value is “high polyreactivity”.

Turning to “QVQLVESGGGLVQAGGSLRLSCAASGFIFLENDMGWYRQAPGKERELVASINSGSDTNYADSVKGRFTISRDNAKNTVYLQMNSLKPEDTAVYYCNASYNGVPARYDYWGQGTQVTVSS”, the “polyreactivity (PSR sort gate)” value was “low polyreactivity”.

Turning to “QVQLVESGGGLVQAGGSLRLSCAASGFIFLETDKGWYRQAPGKERELVASINSGTNTYYADSLKGRFTISRDNAKNTVYVEMNSLKPEDSAVYYCNADDAYLVTQPYDDNYDYWGQGTQVTVSS”, the “polyreactivity (PSR sort gate)” value was “low polyreactivity”.

Turning to “QVQLVESGGGLVQAGGSLRLSCAASGFIFLGNAMGWYRQAPGKERELVASISRGGSTNYADSVKGRFTISRDNAKNTVYLQMNSLKPEDTAVYYCAADLSDKFGYWGQGTQVTVSS”, the “polyreactivity (PSR sort gate)” value is recorded as “low polyreactivity”.

As to “QVQLVESGGGLVQAGGSLRLSCAASGFIFLLNAMGWYRQAPGKERELVAAISWGGGSTYYADSVKGRFTISRDNAKNTVYLQMNSLKPEDTAVYYCAAKPGKTPLTGHRGPYDTGYGYWGQGTQVTVSS”, the “polyreactivity (PSR sort gate)” value is listed as “low polyreactivity”.

For “QVQLVESGGGLVQAGGSLRLSCAASGFIFLPYFMAWYRQAHGKERELVAAISGVGGITYYADSVKGRFTISRDNAKNTVYLQMNSLKPEDTAVYYCAAESSYFVALNQFYTVEFYYWGQGTQVTVSS”, the “polyreactivity (PSR sort gate)” value is on record as “low polyreactivity”.

For the sequence “QVQLVESGGGLVQAGGSLRLSCAASGFIFLQYADMGWYRQAPGKERELVAAISYIGGSTYYADSVKGRFTISRDNAKNTVYLQMNSLKPEDTAVYYCAAEYSTAFGEYYYWGQGTQVTVSS”, the “polyreactivity (PSR sort gate)” value is recorded as “high polyreactivity”.

Take “QVQLVESGGGLVQAGGSLRLSCAASGFIFLSYAMGRYRQAPGKERELVAAISGRGGSTYYADSVKGRFTISRDNAKNTVYLQMNSLKPEDTAVYYCAVRRYRFPPGDYWGQGTQVTVSS”: the “polyreactivity (PSR sort gate)” value was “high polyreactivity”.

For the sequence “QVQLVESGGGLVQAGGSLRLSCAASGFIFLYAMGWSRQAPRKERELVAAISWSDTSTYYADSVKGRFTISRDNAKNTVYLQMNSLIPEDTAVYFCNAETWNYGDFDYWGQGTQVTVSS”, the “polyreactivity (PSR sort gate)” value is on record as “high polyreactivity”.

For “QVQLVESGGGLVQAGGSLRLSCAASGFIFLYYAMGWYRQAPGKERELVADSSRGADTKYADSVKGRFTISRDNAKNNVYLQMNSLKPVDTAVYYCAARTGWPRVGFQFPAHVGFDYWGQGTQVTVSS”, the “polyreactivity (PSR sort gate)” value was “low polyreactivity”.

For the sequence “QVQLVESGGGLVQAGGSLRLSCAASGFIFNAYAMGWYRQAPGKERELVAAISTRCSNTYYADSVKGRFTISRDNAMNTVFLQMNSLIPEDTAVYYCAARGYVTYSKSNYWGQGTQVTVSS”, the “polyreactivity (PSR sort gate)” value is recorded as “high polyreactivity”.

(Values after the nanobody polyreactivity screen of Harvey et al. (2022).)
